Assays:
[1] = molecular target: Sm-like protein from Sulfolobus acidocaldarius (SacSm) (Sulfolobus acidocaldarius); assay: dynamic light scattering; particle size under native conditions, Zetasizer Nano ZSP, 25 °C, detection angle 173°
[2] = molecular target: hybrid chaperone protein ADGroEL–SacSm (Escherichia coli | Sulfolobus acidocaldarius); assay: as above

| stoichiometry N [1] | stoichiometry N [2] | Substance |
| --- | --- | --- |
| 7 |  | Sm-like protein from Sulfolobus acidocaldarius (SacSm) (natural protein) |
|  | 7 | hybrid chaperone protein ADGroEL–SacSm |
